Test results as given in patent publication US9289506B2, “Surface binding of nanoparticle based drug delivery to tissue” (Massachusetts Institute of Technology, priority 2013, dated 2016).

How the values were obtained:
[1] = Equilibrium uptake and desorption of Avidin and NeutrAvidin in cartilage disks; type: in vitro ADME, bovine; details: for mean uptake ratio: 24 h
Text: Cartilage disks were harvested from the femoropatellar grooves of 1-2 week old bovine calf knee joints (obtained from Research 87, Hopkinton, Mass.) as described previously (Patwari et al., Arthritis Rheum, 2003). Briefly, cylindrical cartilage disks (3 mm or 6 mm diameter) were cored using a dermal punch and then sliced to obtain the top 1 mm of cartilage with intact superficial zone. Cartilage disks for all treatment groups were matched for depth and location along the joint surface. The disks were then pre-equilibrated in PBS (without Ca^2±/Mg^2±) supplemented with protease inhibitors (Complete Protease Cocktail tablet in 50 mL PBS, Roche Applied Science, IN) in a 37° C., 5% CO2 incubator for 24-48 h.
Equilibrium uptake of Avidin and NeutrAvidin: 3 mm diameter, 1 mm thick cartilage explants were incubated for specific times in 300 μl of known concentration (3 μM) of FITC-Avidin and FITC-NeutrAvidin, supplemented with protease inhibitors at 37° C. in a 96 well plate format. After removal from the absorption baths, the disks were rinsed, gently wiped and then incubated in 1× or 10×PBS supplemented with protease inhibitors for 24 h or longer as specified. At the end of the experiment, the surfaces of each disk were quickly blotted with Kimwipes and the wet weight was measured. The disks were then lyophilized and the dry weight was measured; the water weight was calculated from the tissue wet and dry weights. The fluorescence signal in the absorption and desorption baths was quantified using a plate reader (1400 Wallace Victor, PerkinElmer, MA); the solute content inside the cartilage disk was determined from the difference between the fluorescence reading of the absorption/desorption baths before and after incubation. […] The solute uptake ratio was calculated as the concentration of the FITC-solute in the cartilage (per intra-tissue water weight) normalized to the concentration of FITC-solute in the equilibration bath.

[2] = Non-equilibrium diffusive transport across cartilage disks (transport cell); type: in vitro ADME, bovine; details: 400 μm thick disks, 20° C.
Procedure: Real-time measurement of diffusive transport of Avidin and NeutrAvidin through young bovine cartilage disks (with intact superficial zone) was measured using a diffusion chamber consisting of two compartments as described previously (Garcia et al., Arch Biochem Biophys, 2003). Groups of three cartilage disks (6 mm diameter, 400 μm thick) were clamped by O-rings between the two compartments of the diffusion chamber (with total exposed tissue area for transport of 0.28 cm^2/disk), such that solute transport from the upstream compartment into and across the cartilage disks, simultaneously, could occur only from the superficial zone of the cartilage (schematic shown in the inset of FIG. 14). The compartments were treated with casein to prevent non-specific adsorption of solutes to the chamber surfaces. […] Aliquots were taken from each chamber at different time intervals, and fluorescence was measured using a plate reader.
The compartment volume of 25 ml is approximately 1,000× larger than the volume of the cartilage plugs in the configuration of FIG. 14 (inset). […] This configuration thereby focuses on quantitation of steady state solute flux and assessment of effective solute diffusivity within cartilage. […]
[formula] where δ is the thickness of the cartilage disk (˜400 μm). DEFF for Avidin was calculated to be 3.8×10^−7 cm^2/s. […]

[3] = Intra-articular injection of Avidin or Neutravidin in rat knee joints: penetration, uptake and retention in joint tissues; details: for mean concentration in articular cartilage: rat, i.a. injection
Procedure: Intra-articular (i.a.) injections of 50 μl of 50 μM Avidin (pI 10.5, 66 kDa, diameter ˜7 nm) or Neutravidin (neutral at pH 7, 60 kDa, diameter ˜7 nm) conjugated with Texas Red (both from Invitrogen, CA) were administered in the right knee joints of healthy 18-20 weeks old Fischer-344 rats (Charles River Laboratories). Following the injection, rat knees were flexed and extended to distribute the injected solute throughout the intra-articular space. Contralateral left knees were used as controls. Avidin injected rats were sacrificed at 4 different time points (6 h, 1 d, 4 d, 7 d) and Neutravidin injected rats were sacrificed after 1 day. The following tissue types were extracted from each joint: articular cartilage removed from the patellar groove, femoral condyle and tibial plateau using a scalpel; medial and lateral menisci; i.a. ligaments (ACL & PCL); patellar and quadriceps tendons; and femoral bone. 6 rats were used per treatment condition for a total of 30 rats. Using a digital caliper (Fisher Scientific), the joint thickness was measured before and after the injection at each time point to check for joint swelling indicating an inflammatory response to the injection.
Tissue samples extracted from the rat joints injected with Avidin-Texas Red (Excitation at 595 nm and emission at 615 nm) and sacrificed at 6 h were imaged using a confocal microscope (OLYMPUS, FluoView FV1000) at 10× magnification by taking Z stacks. Images were taken in X-Y plane, which represents the surface through which Avidin diffused. 3D images were reconstructed using Z stacking (slice thickness˜4.5 μm) and cross-sections in the X-Z plane of these 3D images were taken.
Tissue samples from all treatment conditions were then desorbed in 10×PBS for 48 h in 37° C. incubator to disrupt electrostatic interactions and release Avidin/Neutravidin into the desorption bath. […] At the end of the experiment, tissue samples were removed from the bath, lyophilized and the dry weight was measured. Fluorescence signal from desorption bath was quantified using a plate reader (Synergy HT, BioTek). […] The solute uptake was calculated as the concentration of labeled solute in the tissue samples normalized by tissue dry weight.
The half-life of Avidin was calculated by fitting an exponential curve to the experimental data:
Where, C0 is the initial and C(t) is the final Avidin concentration in tissue after time t and λ is the decay constant.

With “Avidin: positively charged globular glycosylated tetrameric protein, pI 10.5, 66 kDa, diameter ~7 nm (Invitrogen); SEQ ID NO 1” as the substance, how does the “percent of absorbed solute diffused out of the cartilage” value ([1]; 10×PBS, within 24 h) read?
Its value is about 69%.

And the mean uptake ratio ([1]; 40% GAG-depleted cartilage (chondroitinase-ABC))?
Its mean uptake ratio is 24.

And the “higher uptake of Avidin compared to NeutrAvidin” value ([1]; normal cartilage)?
Its value is “greater than 400 times”.

And the mean uptake ratio ([1]; normal cartilage)?
The mean uptake ratio was about 183.

What about the “time lag τlag to achieve the steady state flux” value [2] of the same substance?
The value was about 35 min.

And the “knee joint inflammation (swelling, stiffness) after i.a. injection” value ([3]; 6 h, 1 d, 4 d and 7 d)?
The value was “did not present any signs of swelling or joint stiffness”.

What about the “concentration in articular cartilage as percent of 24 h value” ([3]; 4 days) of the same substance?
The value was 10.3%.

And the “concentration in articular cartilage as percent of 24 h value” ([3]; 7 days)?
Its value is 4.1%.

What about the Half-life ([3]; Cartilage) of the same substance?
The Half-life was 29.0 h.

What about the Half-life ([3]; Ligament) of the same substance?
Its Half-life is 25.7 h.

What about the Half-life ([3]; Meniscus) of the same substance?
Its Half-life is 21.4 h.

And the Half-life ([3]; Patella Tendon)?
Its Half-life is 16.9 h.

What about the Half-life ([3]; Quadriceps Tendon) of the same substance?
Its Half-life is 27.2 h.

What about the “detection in the femoral bone” value ([3]; any time point) of the same substance?
Its value is “Neither Avidin nor Neutravidin was detected”.

And the “time to diffuse through the full thickness of joint tissues after i.a. injection” value ([3]; cartilage, menisci, ligaments, tendons, confocal)?
The value was at most 6 h.

And the “dwell time inside the joint” value ([3]; rat knee)?
Its value is 7 days.

What about the “mean concentration in articular cartilage” value (from here on “mean concentration”) ([3]; 6 h) of the same substance?
The value was 4.7 μg/mg tissue dry weight.

And the “mean concentration” value ([3]; 24 h)?
Its value is 3.3 µg/mg.

And the “mean concentration” value ([3]; 4 days)?
Its value is 0.34 µg/mg.

What about the “mean concentration” value ([3]; 7 days) of the same substance?
Its value is 0.13 µg/mg.
